Assay [1] addresses T1, GST-His-ZTL (Arabidopsis thaliana, UniProt Q94BT6 1-609, RED-NHS 2nd Generation fluorescent label (in the MST assay only)).
T1 construct: Vector pET-42a (GST-tag); Printed molecular weight 99 kD; Called GST-His-ZTL in the pull-downs and GST-ZTL in the MST assay; also called GST-ZTL; ZEITLUPE; source: E. coli BL21 (DE3), purified (GST-beads); not shown: GST, N-terminal, kept; His, N-terminal, kept
Kind of assay: pull-down; MBP-His-CHE and GST-His-ZTL in equal amounts (about 5 ug), amylose resin, MBP column buffer (20 mM Tris-HCl pH 7.4, 0.2 M NaCl, 1 mM EDTA), 2-3 h at 4 °C; blots with anti-MBP and anti-GST. The settings on record: both partners purified.

Assay [2] has as its target T1, GST-His-ZTL. Kind of assay: MST; 50 nM RED-NHS-labelled GST-ZTL with serially diluted His-CHE, without or with 5 uM His-HaRxL10; 50 mM Tris-HCl pH 7.4, 150 mM NaCl, 10 mM MgCl2, 0.1% Pluronic F-127, Tween-20; 25 °C; Monolith NT.115. Particulars: both partners purified.

T1 sequence (Q94BT6 whole entry): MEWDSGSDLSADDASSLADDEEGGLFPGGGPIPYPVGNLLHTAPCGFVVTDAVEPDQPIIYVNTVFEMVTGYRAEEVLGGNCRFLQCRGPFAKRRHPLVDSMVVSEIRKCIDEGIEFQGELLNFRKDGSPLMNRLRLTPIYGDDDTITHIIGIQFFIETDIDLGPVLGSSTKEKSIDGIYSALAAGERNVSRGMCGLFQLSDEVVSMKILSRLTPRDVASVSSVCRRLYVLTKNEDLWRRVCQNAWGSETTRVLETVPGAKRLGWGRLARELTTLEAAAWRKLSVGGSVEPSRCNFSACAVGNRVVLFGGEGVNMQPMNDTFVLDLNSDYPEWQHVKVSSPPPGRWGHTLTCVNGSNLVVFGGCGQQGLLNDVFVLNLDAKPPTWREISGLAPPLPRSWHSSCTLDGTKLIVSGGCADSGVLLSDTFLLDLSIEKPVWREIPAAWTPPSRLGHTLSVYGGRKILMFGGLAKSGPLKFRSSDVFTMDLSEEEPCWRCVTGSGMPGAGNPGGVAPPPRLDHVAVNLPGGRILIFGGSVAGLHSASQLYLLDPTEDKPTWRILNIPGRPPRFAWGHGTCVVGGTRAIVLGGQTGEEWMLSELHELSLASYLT

B1: MBP-His-CHE (natural protein)
chain: not shown
notes: Vector pQLink (MBP-His-tag); Printed molecular weight 70.1 kD; source: E. coli BL21 (DE3), purified (amylose resin); not shown: MBP, N-terminal, kept; His, N-terminal, kept
Turning to B1, the binding result in assay [1] is “binds”.

B2: His-CHE (natural protein)
chain: not shown
notes: Vector pET28a (His-tag); source: E. coli BL21 (DE3), purified (Ni-NTA); not shown: His, N-terminal, kept
For B2, the binding result in assay [2] is reported as “binds”.

For the origin of these results see PMC11814294, “A pathogen effector HaRxL10 hijacks the circadian clock component CHE to perturb both plant development and immunity” (Nature Communications, 2025).
